This data set deals with the molecule itself. As to the kind of experiment: SEC; HiLoad 16/60 Superdex 200 pg column in 1X PBS, after Ni-NTA. In general terms: Size exclusion chromatography separates by hydrodynamic size, large species first.

B1: Schmallenberg virus nucleoprotein (natural protein)
chain: MSSQFIFEDVPQRNAATFNPEVGYVAFIGKYGQQLNFGVARVFFLNQKKAKMVLHKTAQPSVDLTFGGVKFTVVNNHFPQYVSNPVPDNAITLHRMSGYLARWIADTCKASVLKLAEASAQIVMPLAEVKGCTWADGYTMYLGFAPGAEMFLDAFDFYPLVIEMHRVLKDNMDVNFMKKVLRQRYGTMTAEEWMTQKITEIKAAFNSVGQLAWAKSGFSPAARTFLQQFGINI
notes: Nucleoprotein (N) of Schmallenberg virus, encoded on the S segment; cDNA ligated through AgeI/XhoI into pET-28M-SUMO3 in place of GFP; also called SBV-N; SBV N; source: E. coli BL21, purified (Ni-NTA, SEC)
Regarding B1, the binding result is recorded as “binds”.

Values taken from paper PMC7684302, “A novel Schmallenberg virus subunit vaccine candidate protects IFNAR^-/- mice against virulent SBV challenge” (Scientific Reports, 2020).
